The results in this text go back to publication doi:10.1101/2023.02.13.526773.

For orientation: stoichiometry N means a count of units in the complex or per binding partner.

The target of assay [1] is FLAG-tagged GFP11-CHAMP-1 fusion (N-terminal GFP11). Description: split reporter.
Assay [2] deals with mEpoR-TM2 (isotope-labelled recombinant mEpoR TM domain fragment) (mouse). The assay is described as follows: SDS-PAGE.

For “mEpoR-GFP1-10 fusion protein (domain or fragment)”, the fold MFI over cells expressing either fusion alone in assay [1] was > 4 fold.

In the case of “mEpoR-TM2 (isotope-labelled recombinant mEpoR TM domain fragment) (domain or fragment)”, in assay [2], the stoichiometry N amounted to 2.
